B1: Protein PML (Homo sapiens), P29590 (parent)
chain: MEPAPARSPRPQQDPARPQEPTMPPPETPSEGRQPSPSPSPTERAPASEEEFQFLRCQQCQAEAKCPKLLPCLHTLCSGCLEASGMQCPICQAPWPLGADTPALDNVFFESLQRRLSVYRQIVDAQAVCTRCKESADFWCFECEQLLCAKCFEAHQWFLKHEARPLAELRNQSVREFLDGTRKTNNIFCSNPNHRTPTLTSIYCRGCSKPLCCSCALLDSSHSELKCDISAEIQQRQEELDAMTQALQEQDSAFGAVHAQMHAAVGQLGRARAETEELIRERVRQVVAHVRAQERELLEAVDARYQRDYEEMASRLGRLDAVLQRIRTGSALVQRMKCYASDQEVLDMHGFLRQALCRLRQEEPQSLQAAVRTDGFDEFKVRLQDLSSCITQGKDAAVSKKASPEAASTPRDPIDVDLPEEAERVKAQVQALGLAEAQPMAVVQSVPGAHPVPVYAFSIKGPSYGEDVSNTTTAQKRKCSQTQCPRKVIKMESEEGKEARLARSSPEQPRPSTSKAVSPPHLDGPPSPRSPVIGSEVFLPNSNHVASGAGEAEERVVVISSSEDSDAENSSSRELDDSSSESSDLQLEGPSTLRVLDENLADPQAEDRPLVFFDLKIDNETQKISQLAAVNRESKFRVVIQPEAFFSIYSKAVSLEVGLQHFLSFLSSMRRPILACYKLWGPGLPNFFRALEDINRLWEFQEAISGFLAALPLIRERVPGASSFKLKNLAQTYLARNMSERSAMAAVLAMRDLCRLLEVSPGPQLAQHVYPFSSLQCFASLQPLVQAAVLPRAEARLLALHNVSFMELLSAHRRDRQGGLKKYSRYLSLQTTTLPPAQPAFNLQALGTYFEGLLEGPALARAEGVSTPLAGRGLAERASQQS

Variants of: B1
Details: with csk21_human CSNK2A1, P68400
Sequence of csk21_human CSNK2A1, P68400 (P68400 whole entry, looked up): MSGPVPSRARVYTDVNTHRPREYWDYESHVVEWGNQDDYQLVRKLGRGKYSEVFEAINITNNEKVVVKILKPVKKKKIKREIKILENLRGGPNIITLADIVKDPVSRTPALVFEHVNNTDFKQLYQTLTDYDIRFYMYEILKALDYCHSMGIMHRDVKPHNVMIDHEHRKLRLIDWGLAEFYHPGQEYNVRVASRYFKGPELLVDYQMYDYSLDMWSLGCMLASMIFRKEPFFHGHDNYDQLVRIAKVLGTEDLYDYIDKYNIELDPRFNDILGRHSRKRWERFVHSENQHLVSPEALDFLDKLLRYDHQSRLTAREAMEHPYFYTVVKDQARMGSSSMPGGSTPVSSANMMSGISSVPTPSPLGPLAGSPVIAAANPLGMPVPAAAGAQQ

Row | Variant | effect of a mutation on the interaction
1 | S518A | decreasing interaction

Source: IntAct's records for PubMed 16873060
